Here are results for 140 substances from the supplement of paper PMC12042874.

± gives the uncertainty stated by the source.

The nature of this data set: amyloid nucleation score (Sup35N fusion, yeast selection) (log enrichment); library NNK1; higher = more nucleation; inactive = no reads after selection. A digest of the protocol: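 DiMSum was used to calculate nucleation scores as log enrichment of output over input reads, centred on the mode score of non-aggregating sequences. Sequences with fewer than 100 input reads were not scored. Input and output came from Illumina sequencing of plasmid inserts in psi-negative yeast expressing peptides of 20 random codons fused to Sup35N, induced 24 hours with 100 μM copper sulfate and then grown 7 days at 30°C on medium lacking adenine and uracil.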
Take WMALDYGYSTSHGNCYMEIS: the amyloid nucleation score turned out to be 1.23 ± 0.84.
In turn, VRGVSVGSYKSVAELGGTQT showed an amyloid nucleation score of -0.449 ± 1.3.
FQSLGTFLDIQLCGHNLVAE registered an amyloid nucleation score of 0.537 ± 0.34.
Under QVFKHGSPGHMLALCQRAV stands 1.39 ± 0.63; under ISICDVYLWVHMRYSL, 0.584 ± 0.21; under LYFVLPTNKLPDRSY, -0.403 ± 0.84.
With VDLLGTTDGRSRVLFRIRTR the figure was 0.151 ± 0.59; with RSYVVSPVNY, -1.18 ± 0.76.
With SSLGAIYGLINQRPA the figure was 0.776 ± 1; with SARRTPCTVIL, 0.362 ± 1.4.
In the case of NLTRSVHVMRQVIVQHFIGN, the amyloid nucleation score is 0.424 ± 0.72.
With AVCIYRHRLVTGSWWLSIS the figure was 0.359 ± 0.39; with FVDFMQRNWGLVRVPCHVSL, “inactive”; with ITGGVVWEHS, 0.358 ± 1.
Under RPSITNRPC stands 0.735 ± 0.83.
With QRFQAGPCRFSE the figure was -0.394 ± 0.95; with ISLTDRVSGNRAVYHCSYAS, -1.01 ± 1.4; with TTMILWQTQYDYLG, -0.247 ± 0.58.
In the case of FWKTLQIFRTMVVN, the amyloid nucleation score was found to be 0.055 ± 0.9.
EKNCRADATV came in with an amyloid nucleation score of -1.96 ± 1.8.
With MPPMYGRGRPMNKIGVWDYA the figure was 1.14 ± 0.51; with RCGSPSAHNSIYMR, 1.34 ± 0.32; with DGFCCGIYYILSEMTGHSRS, 1.41 ± 0.65.
With EFIFFCFVLCYANVMLLWN the figure was 0.601 ± 0.42; with YDPPNCSAKSNQAGLKCTGA, 2.22 ± 0.19; with RCTGLRLRVLGAILIFIHYV, “inactive”.
As for QLPAFGINMSRLSNSCSYGC, the amyloid nucleation score came to 0.095 ± 0.59.
Take NWCVLALIN: the amyloid nucleation score turned out to be 1.83 ± 0.43.
With HRQGYVWYLLR the figure was 1.43 ± 0.24.
Under GESKHKQSNECTQCC stands 1.11 ± 0.37; under SVRVPEHGRRWVSKGVG, -0.785 ± 1.1; under MHGSGLHSDSLGPTV, 0.565 ± 0.69.
Under MRDTFFLDRMQITLCSW stands 0.306 ± 0.33; under IKSHNMYYGRRRGVFLGPDR, -0.075 ± 0.44.
YFCAMGNHVLVS showed an amyloid nucleation score of -0.389 ± 0.49.
In turn, ASKKNIF registered an amyloid nucleation score of -0.304 ± 0.79.
With ADYVKMNRDFRVGTTYDMST the figure was 1.18 ± 0.65; with NVGGFQSLPEYNSYRMRAEQ, 0.26 ± 0.56.
Under ESIFFMTDTRSISLCST stands -0.04 ± 0.27.
The substance SLRYSLCRL had an amyloid nucleation score of 0.328 ± 0.24.
Under VFNTVVS stands -0.161 ± 0.41.
Consider LKSSNVPTRNVMRYMPSAFE, for which the amyloid nucleation score is -0.292 ± 0.59.
In the case of VRECRSMERTTHQVCTWGGA, the amyloid nucleation score is 0.078 ± 1.4.
AINSSFWSVGLILEIDMYSY: the amyloid nucleation score was -0.148 ± 0.45.
With DKVLQLMYMGLDSGVLPSKD the figure was -0.789 ± 1; with DLVYC, -0.307 ± 0.52; with AHFHPLEVRFTIHDFLADNL, -0.215 ± 0.5.
In turn, LLWISRTRPYWLLFSVWKLA gave an amyloid nucleation score of -0.107 ± 0.9.
Regarding NYIGYLYLFDFCEHDLCRCF, the amyloid nucleation score was 6.62 ± 0.074.
Under FFIYPWFRMTFERRLDGELG stands 1.62 ± 0.27; under LYLVILVELMVYSKWCIKSP, 0.414 ± 0.36; under TINWEPRFRVLHSPIYRGCY, “inactive”.
Under EYVRRKFQPSCTVMRYCFAR stands 0.006 ± 0.77; under CHVSLYRMDIGLQYRTGRIW, 0.645 ± 0.52; under SFESVFRHCRVRCCYGKIRQ, 0.685 ± 0.31.
Regarding SETLTMFRYCISIRDKGPQG, the amyloid nucleation score was found to be 1.24 ± 0.37.
ACQLLMCLCFFETKGLYLDG gave an amyloid nucleation score of 7.603 ± 0.053.
With YDTTTHMRISMVGSSQPVCL the figure was -0.327 ± 0.3; with DLRSPRNS, “inactive”; with VQCVHLSNME, 0.105 ± 0.72.
With RCGFSLNFC the figure was 3.2 ± 0.097; with WTTSVSL, -0.346 ± 0.84; with SCNCHWY, 1.49 ± 0.74.
Substance WSTCLCGYCCVI registered an amyloid nucleation score of 1.31 ± 0.2.
With MDCTFINGFRVFNLSNSR the figure was 7.967 ± 0.059; with CWPSRQF, 0.373 ± 0.94; with CCSPAPLSLVIIVATVGVAS, 2.04 ± 0.19.
With CSWVTPNGRVLHCLTNLYYY the figure was 0.297 ± 0.59; with KLIVVSLIRDMQSNV, -0.059 ± 0.27; with LTFLYLYWNFNIYGIYGTTI, 0.91 ± 0.19.
Regarding VKYWFVVGVVLSWFTER, the amyloid nucleation score is -0.304 ± 0.24.
Consider LHRSQMIFMCLSVTYSAK, for which the amyloid nucleation score is -0.209 ± 0.47.
With IPPNSWMKSRNCTKLTARVY the figure was -0.312 ± 1.4.
With GFLLGFCYPPQVQLVHVLTR the entry was “inactive”; with CIDYLRSDC, 1.2 ± 0.53.
The substance GYGYFSIVTTRMIVGVHVKC had an amyloid nucleation score of -0.509 ± 0.57.
Under GGILPLTCSFVRTSIDQIGG stands -0.154 ± 0.41; under SCGLINWLRVYHLLSLNSGS, 2.31 ± 0.1.
Regarding GLNDYIKVFLYFDSVNRYLD, the amyloid nucleation score was -0.694 ± 1.1.
NTSVLLTVLVG registered an amyloid nucleation score of 0.822 ± 0.46.
On to GYLLAERDLNIATARGSLLR, for which the amyloid nucleation score is -0.514 ± 0.65.
The substance SLYRIFRKASFESCGLEWFA yielded an amyloid nucleation score of 0.191 ± 0.66.
Under TFTCVITSGCDLYPLLGHIS stands 0.9 ± 0.4; under TRCRWLQ, 0.931 ± 0.93; under PGPRVNHTRCVM, 1.52 ± 0.85.
Turning to VIPVLWAVLWEAIIYEEGGA, the amyloid nucleation score came out at 0.778 ± 0.22.
With VLGKLEWCNLSSVTRAPCFM the figure was 0.14 ± 0.71.
Under KMRVHGLAVHRATQ stands -0.737 ± 0.71.
Under FIRWKLVYYDIMKCPSCSHH stands -0.187 ± 0.61; under RCGLWV, -0.217 ± 0.78; under VKCYLDLINFRYLLDLGDEA, 0.066 ± 0.2.
For FDVFMRYG, the amyloid nucleation score result is “inactive”.
With VHTMSLWCDISQLIVPVNRV the figure was 1.1 ± 0.52.
Under KYWWY stands 0.265 ± 0.2; under TVTYRLYVPATVCFKILFRR, -0.625 ± 0.33.
Under THLGGRRFHFSELRTRSSRG stands -0.023 ± 0.49; under INVPIWGNLQDWLVI, -0.924 ± 0.52; under MNIVIHIPNMRMAAKD, 7.17 ± 0.08.
The substance FDKYLRWFMKTLCNIDNWRW returned an amyloid nucleation score of -0.233 ± 0.24.
Consider MRACRYANLNVSRNMWGICG, for which the amyloid nucleation score was 0.743 ± 0.48.
Under RGITNCVQCPVIPWFLRYYG stands -0.401 ± 0.31.
In turn, CMDRSLMVNNTRPYGCLLEY had an amyloid nucleation score of 6 ± 0.061.
In the case of SMSFRCLDAKDVPDRASQGY, the amyloid nucleation score was -0.385 ± 0.39.
With RRVTCGLQGVLRENR the figure was 0.4 ± 0.46; with DVPGSRQVLVYFFNQIFDEM, 5.9 ± 0.088.
On to IEIGSSF, for which the amyloid nucleation score turned out to be 0.118 ± 0.6.
Under QLLSRLGIS stands -0.641 ± 1.4; under YSCCRVFMCARWLRVTCNMS, 0.189 ± 0.31; under FVQWFASSCCIRPRRYFVSR, -1.42 ± 1.6.
Under EGSPKICPRYST stands 0.088 ± 0.6; under FMPRSLHLTTWLQSNAFNNA, 3.22 ± 0.068; under CLVWLGNNFLDSLWGEGGRA, -0.291 ± 0.38.
With DCPTYWFVAKFFANWVR the entry was “inactive”; with PGARSLLGSYYV, 0.058 ± 0.84.
In turn, HHINWPGCVSRNSYKAIYDG returned an amyloid nucleation score of -0.262 ± 0.84.
With WRVNVEVKYFAEKTVQECWV, the amyloid nucleation score turned out to be 0.817 ± 0.23.
In the case of SRVFLCCAMCLRRNSGYGR, the amyloid nucleation score is -0.362 ± 0.4.
With VLVHKDSG the figure was -0.852 ± 0.71.
Substance NAVINQ yielded an amyloid nucleation score of 0.388 ± 0.73.
Under GLVGTRICSWIDFRSV stands -0.3 ± 1.5.
The substance GRRLIKSTQCGVNKVDSAIW showed an amyloid nucleation score of -0.184 ± 0.27.
The substance RFMSTSLFLMVSNELLSPLM registered an amyloid nucleation score of 1.27 ± 0.16.
Regarding NACDCQPMFVMQWYRRVEPR, the amyloid nucleation score was -0.167 ± 0.53.
With FKRFWLR the figure was 0.166 ± 0.73.
LNNAKCKLVSIFHLGVWVGM: the amyloid nucleation score is -1.12 ± 0.96.
With SYLGSAAIYVCLAGRPSGQR, the amyloid nucleation score is -0.725 ± 1.2.
Under NIANSWYW stands -0.537 ± 1.9; under WIWVYQTNKIKEMFMRRVWL, “inactive”; under WFYPWVLVWTLSCCVSRHKG, 4.35 ± 0.14.
Under LDWAWFYCSRNKRFSTILFR stands 0.138 ± 0.79; under VVSSAEQVHLGVVNGRRFLL, -0.003 ± 0.74.
CVAGLVDGKRKNVIRKWFWN had an amyloid nucleation score of 0.049 ± 0.44.
Under RYMLFVFHSLTGYYIRRFVY stands -1.22 ± 1; under GLMSLYRQSSSLNRKAGWLT, 0.46 ± 0.64; under AYFYNEKNCYSHGKYVPYSF, -0.797 ± 1.7.
In the case of IIVGEFENLYNSAINVK, the amyloid nucleation score entry was “inactive”.
Take IGSLGMCLQCYGAGV: the amyloid nucleation score was 0.147 ± 1.2.
With NEGIMPLVNHSKQEEPGVYR the figure was 0.753 ± 0.57; with VNSVWNGNR, -0.218 ± 0.71; with SRFPYKKSVRTDSGRMSM, -0.393 ± 0.86.
